For this assay, the target named is T1, VSV-7 (Vesicular stomatitis virus).
T1 construct: also called GYVYQGL
Kind of assay: competitive RIA against [^125I]VSV-8 on K^bsol, P30 gel filtration, 23° C.

B1: soluble H-2K^b (K^bsol), heterodimer of truncated K^b heavy chain and murine β-2 microglobulin, purified empty from Drosophila cells (other)
alpha: GPHSLRYFVTAVSRPGLGEPRYMEVGYVDDTEFVRFDSDAENPRYEPRARWMEQEGPEYWERETQKAKGNEQSFRVDLRTLLGYYNQSKGGSHTIQVISGCEVGSDGRLLRGYQQYAYDGCDYIALNEDLKTWTAADMAALITKHKWEQAGEAERLRAYLEGTCVEWLRRYLKNGNATLLRTDSPKAHVTHHSRPEDKVTLRCWALGFYPADITLTWQLNGEELIQDMELVETRPAGDGTFQKWASVVVPLGKEQYYTCHVYHQGLPEPLTLRW
b2m: IQKTPQIQVYSRHPPENGKPNILNCYVTQFHPPHIEIQMLKNGKKIPKVEMSDMSFSKDWSFYILAHTEFTPTETDTYACRVKHASMAEPKTVYWDRDM
notes: also called H-2K^b Sol; soluble K^b
One may read the Kd as the equilibrium constant for the complex coming apart. Higher therefore signals lower affinity. B1 came in with a Kd of 53 nM. That is a double-digit nanomolar value.

(Values after patent publication US20030077318A1 (Scripps Research, published 2003).)
